Data: PMC3135484 (Molecular Biology of the Cell, 2011)

T1: His-tagged Vam7 (1-316) (S. cerevisiae, UniProt P32912 1-316)
T1 sequence: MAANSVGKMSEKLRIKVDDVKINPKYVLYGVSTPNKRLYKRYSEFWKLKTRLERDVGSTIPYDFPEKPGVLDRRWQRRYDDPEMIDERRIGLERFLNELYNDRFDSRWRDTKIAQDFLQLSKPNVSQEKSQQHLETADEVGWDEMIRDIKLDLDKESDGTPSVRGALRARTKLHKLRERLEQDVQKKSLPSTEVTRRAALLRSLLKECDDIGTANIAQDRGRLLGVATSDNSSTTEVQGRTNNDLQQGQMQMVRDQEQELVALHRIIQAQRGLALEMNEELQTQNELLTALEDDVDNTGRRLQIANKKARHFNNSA

T2: Vps16 (individual HOPS subunit, TAP-purified) (yeast (S. cerevisiae), UniProt Q03308 1-798)
T2 sequence: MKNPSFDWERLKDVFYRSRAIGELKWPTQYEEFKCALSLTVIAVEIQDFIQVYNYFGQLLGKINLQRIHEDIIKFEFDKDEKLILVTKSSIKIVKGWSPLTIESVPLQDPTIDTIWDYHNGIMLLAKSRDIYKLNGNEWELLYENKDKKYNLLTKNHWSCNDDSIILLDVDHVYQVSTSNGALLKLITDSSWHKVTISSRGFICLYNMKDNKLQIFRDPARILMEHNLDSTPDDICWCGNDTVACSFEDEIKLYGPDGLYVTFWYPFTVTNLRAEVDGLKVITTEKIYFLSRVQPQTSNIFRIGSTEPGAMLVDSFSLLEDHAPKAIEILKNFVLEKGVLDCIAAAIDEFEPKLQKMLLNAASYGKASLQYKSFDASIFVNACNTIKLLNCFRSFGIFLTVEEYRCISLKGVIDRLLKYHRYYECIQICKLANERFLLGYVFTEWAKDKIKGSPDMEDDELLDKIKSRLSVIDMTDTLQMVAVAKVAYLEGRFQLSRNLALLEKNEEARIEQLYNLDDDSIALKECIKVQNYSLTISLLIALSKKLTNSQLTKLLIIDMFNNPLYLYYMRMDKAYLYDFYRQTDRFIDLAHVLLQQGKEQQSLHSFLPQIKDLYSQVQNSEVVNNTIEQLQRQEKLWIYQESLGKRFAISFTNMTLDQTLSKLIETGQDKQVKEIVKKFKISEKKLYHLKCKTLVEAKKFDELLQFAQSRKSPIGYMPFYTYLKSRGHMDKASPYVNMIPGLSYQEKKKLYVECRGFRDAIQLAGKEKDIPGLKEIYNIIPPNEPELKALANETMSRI

B1: GST-tagged Vam3 (Vam3 1-260, ΔTMD) (domain or fragment)
chain: MSFFDIEAQSSKGNSQQEPQFSTNQKTKELSNLIETFAEQSRVLEKECTKIGSKRDSKELRYKIETELIPNCTSVRDKIESNILIHQNGKLSADFKNLKTKYQSLQQSYNQRKSLFPLKTPISPGTSKERKDIHPRTEAVRQDPESSYISIKVNEQSPLLHNEGQHQLQLQEEQEQQQQGLSQEELDFQTIIHQERSQQIGRIHTAVQEVNAIFHQLGSLVKEQGEQVTTIDENISHLHDNMQNANKQLTRADQHQRDRN

Legend:
Experiment in all cases: pull-down
[1] = molecular target: HOPS (homotypic fusion and protein sorting) complex (yeast (S. cerevisiae), UniProt P38959;Q07468;P20795;P12868;Q03308;P27801)
[2] = molecular target: B1
His-tagged Vam7 (1-316) = molecular target: T1, His-tagged Vam7 (1-316)
[3] = molecular target: T2, Vps16 (individual HOPS subunit, …)

| Binder | binding result [1] | further results |
| --- | --- | --- |
| SNARE complex assembled on GST-Vam7 SD with Vam3, Vti1 and Ykt6 (complex) chain 1: PSTEVTRRAALLRSLLKECDDIGTANIAQDRGRLLGVATSDNSSTTEVQGRTNNDLQQGQMQMVRDQEQELVALHRIIQAQRGLALEMNEELQTQNELLTALEDDVDNTGRRLQIANKKARHFNNSA chain 2: MSFFDIEAQSSKGNSQQEPQFSTNQKTKELSNLIETFAEQSRVLEKECTKIGSKRDSKELRYKIETELIPNCTSVRDKIESNILIHQNGKLSADFKNLKTKYQSLQQSYNQRKSLFPLKTPISPGTSKERKDIHPRTEAVRQDPESSYISIKVNEQSPLLHNEGQHQLQLQEEQEQQQQGLSQEELDFQTIIHQERSQQIGRIHTAVQEVNAIFHQLGSLVKEQGEQVTTIDENISHLHDNMQNANKQLTRADQHQRDRNKCGK chain 3: MSSLLISYESDFKTTLEQAKASLAEAPSQPLSQRNTTLKHVEQQQDELFDLLDQMDVEVNNSIGDASERATYKAKLREWKKTIQSDIKRPLQSLVDSGDRDRLFGDLNASNIDDDQRQQLLSNHAILQKSGDRLKDASRIANETEGIGSQIMMDLRSQRETLENARQTLFQADSYVDKSIKTLKTMTRR chain 4: MRIYYIGVFRSGGEKALELSEVKDLSQFGFFERSSVGQFMTFFAETVASRTGAGQRQSIEEGNYIGHVYARSEGICGVLITDKEYPVRPAYTLLNKILDEYLVAHPKEEWADVTETNDALKMKQLDTYISKYQDPSQADAIMKVQQELDETKIVLHKTIENVLQRGEKLDNLVDKSESLTASSKMFYKQAKKSNSCCIIM | binds | – |
| minimal SNARE complex assembled on GST-Vam7 SD with Vam3ΔN, Vti1 and Ykt6 (complex) chain 1: PSTEVTRRAALLRSLLKECDDIGTANIAQDRGRLLGVATSDNSSTTEVQGRTNNDLQQGQMQMVRDQEQELVALHRIIQAQRGLALEMNEELQTQNELLTALEDDVDNTGRRLQIANKKARHFNNSA chain 2: ESSYISIKVNEQSPLLHNEGQHQLQLQEEQEQQQQGLSQEELDFQTIIHQERSQQIGRIHTAVQEVNAIFHQLGSLVKEQGEQVTTIDENISHLHDNMQNANKQLTRADQHQRDRNKCGK chain 3: MSSLLISYESDFKTTLEQAKASLAEAPSQPLSQRNTTLKHVEQQQDELFDLLDQMDVEVNNSIGDASERATYKAKLREWKKTIQSDIKRPLQSLVDSGDRDRLFGDLNASNIDDDQRQQLLSNHAILQKSGDRLKDASRIANETEGIGSQIMMDLRSQRETLENARQTLFQADSYVDKSIKTLKTMTRR chain 4: MRIYYIGVFRSGGEKALELSEVKDLSQFGFFERSSVGQFMTFFAETVASRTGAGQRQSIEEGNYIGHVYARSEGICGVLITDKEYPVRPAYTLLNKILDEYLVAHPKEEWADVTETNDALKMKQLDTYISKYQDPSQADAIMKVQQELDETKIVLHKTIENVLQRGEKLDNLVDKSESLTASSKMFYKQAKKSNSCCIIM | binds | – |
| His-tagged Ykt6 (1-200) (natural protein) MRIYYIGVFRSGGEKALELSEVKDLSQFGFFERSSVGQFMTFFAETVASRTGAGQRQSIEEGNYIGHVYARSEGICGVLITDKEYPVRPAYTLLNKILDEYLVAHPKEEWADVTETNDALKMKQLDTYISKYQDPSQADAIMKVQQELDETKIVLHKTIENVLQRGEKLDNLVDKSESLTASSKMFYKQAKKSNSCCIIM | – | binding result [2]: binds |
| His-tagged Vti1 (1-189, ΔTMD) (domain or fragment) MSSLLISYESDFKTTLEQAKASLAEAPSQPLSQRNTTLKHVEQQQDELFDLLDQMDVEVNNSIGDASERATYKAKLREWKKTIQSDIKRPLQSLVDSGDRDRLFGDLNASNIDDDQRQQLLSNHAILQKSGDRLKDASRIANETEGIGSQIMMDLRSQRETLENARQTLFQADSYVDKSIKTLKTMTRR | – | binding result [2]: binds |
| Q-SNARE complex assembled on GST-Vam7 SD with Vam3 and Vti1 (complex) chain 1: PSTEVTRRAALLRSLLKECDDIGTANIAQDRGRLLGVATSDNSSTTEVQGRTNNDLQQGQMQMVRDQEQELVALHRIIQAQRGLALEMNEELQTQNELLTALEDDVDNTGRRLQIANKKARHFNNSA chain 2: MSFFDIEAQSSKGNSQQEPQFSTNQKTKELSNLIETFAEQSRVLEKECTKIGSKRDSKELRYKIETELIPNCTSVRDKIESNILIHQNGKLSADFKNLKTKYQSLQQSYNQRKSLFPLKTPISPGTSKERKDIHPRTEAVRQDPESSYISIKVNEQSPLLHNEGQHQLQLQEEQEQQQQGLSQEELDFQTIIHQERSQQIGRIHTAVQEVNAIFHQLGSLVKEQGEQVTTIDENISHLHDNMQNANKQLTRADQHQRDRNKCGK chain 3: MSSLLISYESDFKTTLEQAKASLAEAPSQPLSQRNTTLKHVEQQQDELFDLLDQMDVEVNNSIGDASERATYKAKLREWKKTIQSDIKRPLQSLVDSGDRDRLFGDLNASNIDDDQRQQLLSNHAILQKSGDRLKDASRIANETEGIGSQIMMDLRSQRETLENARQTLFQADSYVDKSIKTLKTMTRR | binds | – |
| B1 | – | binding result (His-tagged Vam7 (1-316)): binds |
| GST-tagged Vam7 PX domain (1-129) (domain or fragment) MAANSVGKMSEKLRIKVDDVKINPKYVLYGVSTPNKRLYKRYSEFWKLKTRLERDVGSTIPYDFPEKPGVLDRRWQRRYDDPEMIDERRIGLERFLNELYNDRFDSRWRDTKIAQDFLQLSKPNVSQEK | binds | – |
| GST-tagged Vam7 (1-316) (natural protein) MAANSVGKMSEKLRIKVDDVKINPKYVLYGVSTPNKRLYKRYSEFWKLKTRLERDVGSTIPYDFPEKPGVLDRRWQRRYDDPEMIDERRIGLERFLNELYNDRFDSRWRDTKIAQDFLQLSKPNVSQEKSQQHLETADEVGWDEMIRDIKLDLDKESDGTPSVRGALRARTKLHKLRERLEQDVQKKSLPSTEVTRRAALLRSLLKECDDIGTANIAQDRGRLLGVATSDNSSTTEVQGRTNNDLQQGQMQMVRDQEQELVALHRIIQAQRGLALEMNEELQTQNELLTALEDDVDNTGRRLQIANKKARHFNNSA | binds | binding result [3]: binds |
